# Reference: publication PMC9352680, “A comprehensive thermodynamic model for RNA binding by the Saccharomyces cerevisiae Pumilio protein PUF4”
# How the values were obtained:
# [1] = target: T1, PUF4 RNA-binding domain (Pumilio homology domain) (Saccharomyces cerevisiae, UniProt P25339 537-888); experiment: EMSA (active-fraction titration); high salt: 2 mM MgCl2, 100 mM KOAc; 69% active protein; RNA-MaP: 20 mM Na-HEPES pH 7.4, 0.1% Tween-20, 5% glycerol, 0.1 mg/mL BSA, 2 mM DTT, low salt 0.75 mM MgCl2 + 30 mM KOAc (model data; high salt 2 mM MgCl2 + 100 mM KOAc), 25 C; conditions: protein: recombinant; tags: C-terminal SNAP tag, Cy3B-labeled; N-terminal His tag removed with TEV; label: 32P (trace) plus unlabeled; single-stranded
# T1 sequence: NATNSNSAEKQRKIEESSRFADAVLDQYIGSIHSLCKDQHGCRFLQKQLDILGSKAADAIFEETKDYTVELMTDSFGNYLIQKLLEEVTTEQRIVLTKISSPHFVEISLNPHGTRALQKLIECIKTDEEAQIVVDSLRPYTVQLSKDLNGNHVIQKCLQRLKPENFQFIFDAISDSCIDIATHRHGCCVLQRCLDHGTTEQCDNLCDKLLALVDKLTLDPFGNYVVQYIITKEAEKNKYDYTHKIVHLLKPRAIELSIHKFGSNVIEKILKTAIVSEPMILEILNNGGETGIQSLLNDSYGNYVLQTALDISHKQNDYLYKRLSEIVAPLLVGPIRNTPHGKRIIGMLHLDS
# [2] = target: T1, PUF4 RNA-binding domain (Pumilio …); experiment: RNA-MaP; ddG 0.934; RNA-MaP: 20 mM Na-HEPES pH 7.4, 0.1% Tween-20, 5% glycerol, 0.1 mg/mL BSA, 2 mM DTT, low salt 0.75 mM MgCl2 + 30 mM KOAc (model data; high salt 2 mM MgCl2 + 100 mM KOAc), 25 C; conditions: protein: recombinant; tags: C-terminal SNAP tag, Cy3B-labeled; N-terminal His tag removed with TEV; label: array RNA; single-stranded
# [3] = target: T1, PUF4 RNA-binding domain (Pumilio …); experiment: RNA-MaP; ddG 3.923; RNA-MaP: 20 mM Na-HEPES pH 7.4, 0.1% Tween-20, 5% glycerol, 0.1 mg/mL BSA, 2 mM DTT, low salt 0.75 mM MgCl2 + 30 mM KOAc (model data; high salt 2 mM MgCl2 + 100 mM KOAc), 25 C; conditions: protein: recombinant; tags: C-terminal SNAP tag, Cy3B-labeled; N-terminal His tag removed with TEV; label: array RNA; single-stranded
# [4] = target: T1, PUF4 RNA-binding domain (Pumilio …); experiment: RNA-MaP; ddG 1.018; RNA-MaP: 20 mM Na-HEPES pH 7.4, 0.1% Tween-20, 5% glycerol, 0.1 mg/mL BSA, 2 mM DTT, low salt 0.75 mM MgCl2 + 30 mM KOAc (model data; high salt 2 mM MgCl2 + 100 mM KOAc), 25 C; conditions: protein: recombinant; tags: C-terminal SNAP tag, Cy3B-labeled; N-terminal His tag removed with TEV; label: array RNA; single-stranded
# [5] = target: T1, PUF4 RNA-binding domain (Pumilio …); experiment: RNA-MaP; ddG 1.663; RNA-MaP: 20 mM Na-HEPES pH 7.4, 0.1% Tween-20, 5% glycerol, 0.1 mg/mL BSA, 2 mM DTT, low salt 0.75 mM MgCl2 + 30 mM KOAc (model data; high salt 2 mM MgCl2 + 100 mM KOAc), 25 C; conditions: protein: recombinant; tags: C-terminal SNAP tag, Cy3B-labeled; N-terminal His tag removed with TEV; label: array RNA; single-stranded
# [6] = target: T1, PUF4 RNA-binding domain (Pumilio …); experiment: RNA-MaP; ddG 3.533; RNA-MaP: 20 mM Na-HEPES pH 7.4, 0.1% Tween-20, 5% glycerol, 0.1 mg/mL BSA, 2 mM DTT, low salt 0.75 mM MgCl2 + 30 mM KOAc (model data; high salt 2 mM MgCl2 + 100 mM KOAc), 25 C; conditions: protein: recombinant; tags: C-terminal SNAP tag, Cy3B-labeled; N-terminal His tag removed with TEV; label: array RNA; single-stranded
# [7] = target: T1, PUF4 RNA-binding domain (Pumilio …); experiment: RNA-MaP; ddG 3.256; RNA-MaP: 20 mM Na-HEPES pH 7.4, 0.1% Tween-20, 5% glycerol, 0.1 mg/mL BSA, 2 mM DTT, low salt 0.75 mM MgCl2 + 30 mM KOAc (model data; high salt 2 mM MgCl2 + 100 mM KOAc), 25 C; conditions: protein: recombinant; tags: C-terminal SNAP tag, Cy3B-labeled; N-terminal His tag removed with TEV; label: array RNA; single-stranded
# [8] = target: T1, PUF4 RNA-binding domain (Pumilio …); experiment: RNA-MaP; ddG 0.243; RNA-MaP: 20 mM Na-HEPES pH 7.4, 0.1% Tween-20, 5% glycerol, 0.1 mg/mL BSA, 2 mM DTT, low salt 0.75 mM MgCl2 + 30 mM KOAc (model data; high salt 2 mM MgCl2 + 100 mM KOAc), 25 C; conditions: protein: recombinant; tags: C-terminal SNAP tag, Cy3B-labeled; N-terminal His tag removed with TEV; label: array RNA; single-stranded
binder,measurement,setting,value
AUGUGUAUAUUAGU (ssRNA) [consensus RNA 14-mer],binding result,[1],binds
UCUCUUUGUAUAUCUCUCUU (ssRNA) [S1a K3.1 A8C],Kd,[2],-10.7 ± 0.225 kcal/mol (dG=RTlnKd)
UCUCUUGGUAUAUAUCUCUU (ssRNA) [S1a K3.1 T1G],Kd,[3],-7.7 ± 0.635 kcal/mol (dG=RTlnKd)
UCUCUUUGUAUAUGUCUCUU (ssRNA) [S1a K3.1 A8G],Kd,[4],-10.6 ± 0.24 kcal/mol (dG=RTlnKd)
UCUCUUUGUAUAAAUCUCUU (ssRNA) [S1a K3.1 T7A],Kd,[5],-9.96 ± 0.7 kcal/mol (dG=RTlnKd)
UCUCUUCGUAUAUAUCUCUU (ssRNA) [S1a K3.1 T1C],Kd,[6],-8.09 ± 0.575 kcal/mol (dG=RTlnKd)
UCUCUUAGUAUAUAUCUCUU (ssRNA) [S1a K3.1 T1A],Kd,[7],-8.36 ± 0.617 kcal/mol (dG=RTlnKd)
UCUCUUUGUAUAUUUCUCUU (ssRNA) [S1a K3.1 A8T],Kd,[8],-11.4 ± 0.257 kcal/mol (dG=RTlnKd)
